Data on 19 sequences can be found in the DeepSol protein solubility set.

The nature of this data set: soluble on expression in E. coli; label from the status in PepcDB or PDB records.
Regarding “MSLRELQNALYFSEVVFGPNLEKIVGEKRLNFWLKLIGEDPENLKEFLSRKGNSFEEQTLPEKEAIVPNRLGEEALEKVREELEFLNTYSTKHVRRVKELGVQIPFEGILLPFISMYIEKFQQQQLRKKIGPIHEEIWTQIVQDITSKLNAILHRTLILELNVARVTSQLKGDTPEERFAYYSKTYLGKREVTHRLYSEYPVVLRLLFTTISHHISFITEILERVANDREAIETEFSPCSPIGTLASLHLNSGDAHHKQRTVTILEFSSSLKLVYKPRSLKVDGVFNGLLAFLNDRTGEVIKDQYCPKVLQRDGYGYVEFVTHQSCQSLEEVSDFYERLGSLMSLSYVLNSSDFHFENIIAHGPYPVLIDLETIIHNTADSSEETSTAMDRAFRMLNDSVLSTGMLPSSIYYRDQPNMKGLNVGGVSKSEGQKTPFKVNQIANRNTDEMRIEKDHVTLSSQKNLPIFQSAAMESVHFLDQIQKGFTSMYQWIEKNKQEFKEQVRKFEGVPVRAVLRSTTRYTELLKSSYHPDLLRSALDREVLLNRLTVDSVMTPYLKEIIPLEVEDLLNGDVPYFYTLPEERALYQEASAINSTFFTTSIFHKIDQKIDKLGIEDHTQQMKILHMSMLASNANHYADVADLEGHHHHHH”, the “soluble on expression in E. coli” value is “soluble”. As for “MGSSHHHHHHGGTGENLYFQGGSGKIFSTLGNPGTLAATKPKKGEVVLASPEATVSKYKEAIKQHKKALKELHACTERFTHALAAVAASLQLLTSDTHIPVMVQSSGALASGIEEVQDGVLLQDLMEELDYSLSTRFKQIAEDQRELKESRERKSKAERTLMLLRSQCDKLQLKKDVDAKVQALYLAKTQKRDEHEVECTRLKAEFEDTFQDFTKRFGILVYEDMKGLTVHLHRVLSALSYQVRKCKDNIMAHPITPKPIAEMS”, the “soluble on expression in E. coli” value was “not soluble”.

Consider “GQLNVEHRQFLSQGLQGQSKGQSSVVVQPELYWDFQSGESSFTFTPFFRVDSLDDERTHCDIREALFLTYWDDYELRVGISKVFWGVTESAHLVDVVNQTDAVEAVDGEDKLGQPMVHFTAIKDWGAFHAMVLPYFRERTFAGQDGRLRTEPVISDNAIYESSREEKHIDVAFRYSKMLGDWDIGLSYLYGTNRDPYFRFEQGELKPYYALMSHFGIDVQGIVGDWLWKLESVYRDSYDHHVGVVTGFE”, for which the “soluble on expression in E. coli” value was “not soluble”. For “MISVTLSKIADVLGAEHRGADLTLDTVITDTRKVTPGCLFVALKGERFDAHDFADKAKANGAGALLVSRPLDIDLPQVIVKDTRQAFGQLAAWVRMQVPARVVALTGSSGKTSVKEMTAAILSQCGNTLYTAGNFNNDIGVPITLLRLNHDYDYAVIELGANHQGEIAWTVSLTRPEAALVNNLAAAHLEGFGSLAGVAKAKGEIYTGLPENGIAIMNADNNDWLNWQSIIGDRLVWRFSPNAANSDFTAANIHVTSHGTEFTLQTPMGSIDVLLPLPGRHNIANALAAAALSMAVGATLTAIKAGLAALKAVPGRLFPIQLSENQLVLDDAYNANVGSMTAAVQVLSEMPGYRVLVVGDMAELGAESEACHLQVGEAAKAAGIDRVLSTGKLSQAISHASGVGEHFADKAALIARLHALLQEQPMMTILVKGSRSAAMEDVVHALQEKGSC”, the “soluble on expression in E. coli” value is given as “not soluble”. “MLLAHISDTHFRSRGEKLYGFIDVNAANADVVSQLNALRERPDAVVVSGDIVNCGRPEEYQVARQILGSLNYPLYLIPGNHDDKALFLEYLQPLCPQLGSDANNMRCAVDDFATRLLFIDSSRAGTSKGWLTDETISWLEAQLFEGGDKPATIFMHHPPLPLGNAQMDPIACENGHRLLALVERFPSLTRIFCGHNHSLTMTQYRQALISTLPGTVHQVPYCHEDTDPYYDLSPASCLMHRQVGEQWVSYQHSLAHYAGPWLYDENISCPTEER”: the “soluble on expression in E. coli” value was “soluble”. Under “MGHHHHHHSHMLRGMARMGGQRRLKALAAPRFWPILRKEYKWAVKPRPGPHPAEKSLPLLLIVRNVLGYAQTAREARKLISEGHFRVDGVVRKDYKFPVGFMDVIEVVDTGEKFRMLPYPVKFFKLHPIPEEEGDLKPVRIENKTTVKGGHVQLNLHDGRNILVRVKDPRNPVEDVYRTMDTLLITVPGQEIKGHIKFGEGAIAIIVGGRNVGRVGVVKSVQKGWGRKRTLVTLEDASGNLFQTSLDYVFVIGLDRPVISLPEGAWK” stands “soluble”. Under “MSSAHNAYNAGIMQKTGKAFADEFFAEENQVVHESNAVVLVLMKSDEIDAIIEDIVLKGGKAKNPSIVVEDKAGFWWIKADGAIEIDAAEAGELLGKPFSVYDLLINVSSTVGRAYTLGTKFTITSELMGLDRALTDI” stands “soluble”; under “MANGKSKNTKKDGVDKKKTSKTKKKSNLSISKSQTSVDMNEKDKSKEAKEAKELKEKKAKEEAEKKVVATPKKDASKDQAKKEEDPNKQNEPSGMDVLVKEDGKKTKMDDGYEDFGPGAGAAQ”, “not soluble”; under “SPWSQDRVEHLYEQVAAENSVDLLKKGQFQGTPDGSSVVFIDDIKDSTLSNVFVAQMRPRDSVLPSVMFSSSGEVKELSDGRQVITMQEGTRYEGVPTRVEYMITKFDEYEGVIGQREVKQKGRDWEAYPTADLIGHPDPEAQAELQWR”, “not soluble”. Regarding “MELPLDKIKLPPGFSISVWANVPDARTMTLGDKGTVFVGSKSAGNVYAITENAGKRQIRIIASKLKMPNGVAFHDGALYVSSVNRILRFDNIENTLDQPLPPRIITADYPKETYHGWRFIAFGPDGWLYVPVGSSCNVCETDLEHYALISRIRPDGSNYEVFAKGVRNTEGFDWHPVTKALWFTDISREWMGDNLPPDELNHASNQGLDFGFPYCHGKEVSDPKLGAKRDCNKFIPPAVELDPHVAPMGMRFYTGTMFPAEYHNGIFIAEHGSWNRSTKIGYRLEWVQLEVNEVARKEIFAEGWLQENEAWGRPVDVLVMPDGALLVSDDMAGVVYRISYDQPLEHHHHHH”, the “soluble on expression in E. coli” value is given as “soluble”.

Consider “MSQTEPPEDLMQYEAMAQDALRGVVKAALKKAAAPGGLPEPHHLYITFKTKAAGVSGPQDLLSKYPDEMTIVLQHQYWDLAPGETFFSVTLKFGGQPKRLSVPYAALTRFYDPSVQFALQFSAPEIIEDEPEPDPEPEDKANQGASGDEGPKIVSLDQFRKKLEHHHHHH”, for which the “soluble on expression in E. coli” value was “soluble”. “MGSDKIHHHHHHMKVIIVDDDKAMFLILKKMLSKIHNVEVIGTFDRLSTTMEFLENNEVDLAFLDIKISGDNGIDLAKQIVNLKKQINIVFISSHKEFALDSFDVFPLDYIVKPVSQEKLERAIDRASKVIIKSGEEEYKAFIYCFGGLEVRGRNNESVKWISTKSMELFSYLVINSGRSISRGRVIKDIFEEMELKDVESYLNTIVYQLRKALSPLGLKKIITFDSQGYSFDFKDVYVDYIDFISGVESIKEINKDNIDRAKQLVYLYKGDLFDDKEYIWAVGEKEYASNLYSKFLGKVCSWYLENDLINDAYSMGKKLIQYNELDSEVNKIFMNILAARRDKISLNKHYERYAKVLFRELGVKVEDSVEELYRKLIKVLR”: the “soluble on expression in E. coli” value was “not soluble”. As for “MGSDKIHHHHHHADILSCTVDGDILKAEPEIDNESVTLTVKSDADITNLAPVFTLTPGATITPASGSAFDFTTPRTYTVTSEDGHWTKTYTVRCIVSGVSTEYHFEHITMEPKNGRYQIFYDFTSNGDSVTWASGNAGFALTNNKLEPLDFPTMQDDNGYVGKCAKLVTRSTGSFGSGFGMPIAAGNLFIGTFDLLNAIPDARKGTRLGRPFDHVPTYLSGYYKYKAGESYKVNGEEVKGKKDQCDIYAIFYETDENVKYLDGFNGLTSPNLISVARISDQKETDEWTRFYIPFVAKPGKVIDKDKLAKGGYQLSIVFSSSLKGDVFEGAEGSTLWIDEVEIIQSGEN”, the “soluble on expression in E. coli” value was “not soluble”.

Consider “MNHKVHHHHHHIDGRHHHHHHHIDGRHMQVSVETTQGLGRRVTITIAADSIETAVKSELVNVAKKVRIDGFRKGKVPMNIVAQRYGASVRQDVLGDLMSRNFIDAIIKEKINPAGAPTYVPGEYKLGEDFTYSVEFEVYPEVELQGLEAIEVEKPIVEVTDADVDGMLDTLRKQQATWKEKDGAVEAEDRVTIDFTGSVDGEEFEGGKASDFVLAMGQGRMIPGFEDGIKGHKAGEEFTIDVTFPEEYHAENLKGKAAKFAINLKKVEERELPELTAEFIKRFGVEDGSVEGLRAEVRKNMERELKSAIRNRVKSQAIEGLVKANDIDVPAALIDSEIDVLRRQAAQRFGGNEKQALELPRELFEEQAKRRVVVGLLLGEVIRTNELKADEERVKGLIEEMASAYEDPKEVIEFYSKNKELMDNMRNVALEEQAVEAVLAKAKVTEKETTFNELMNQQA”, for which the “soluble on expression in E. coli” value is given as “soluble”. The value for “MNTQTGTGTSEVSKKLKAAIRAKLEELGVYVDDELPDYIMVMIANKKEKVQMKDDLNLFIGKSTAKFVDWLFDLFDRLQNASNKQGETSKKEEDKRKELEATAAAKEHEEKRRKEKEEHEKELQKEKEREKERQRERDREKRAEEEKRREEKRKEIQRSKRRRTRSRSNTYSDEEEHVRARGEKHDRHHHKDHRRGRSHERKIITSTIVRQASASPDKKLHSTVTVKRNIRPTGDQNIKGRGTMFLRAMNEASVSAGYGSSSKRSETHHEDDMSDVEALPSKPASTKSPKKSIRDRMSRISKTSEPPIEEDDAVVLEDFAQTGGGPQMILKLSGGREAIKKTRIQDRIVVDDGLRRGLLKRKIETASGASAGAATSEEPKSKHDRIIFDITPSRDSTPTDDSPTMQKWNGQIEIGDDSEESEDDEEAEIDAFVAEARGIARRESFRDEEDELPPTHQLSGGPYAYHHSTAAPTYIPTPLSVLSEQQNQMGGGAAKEDHHVKERCIFWPKCTKGDTCAFMHPTTNCKNFPNCTFGIRCLFIHPPCRFDRFCTKKHCPFTHHGTGGQQPGGAQLTSEFKNPLTSSRMLTVPSPFIAATAAAVEELPKPAARGALGSLAEKLAASIKKKPAPGAESEKKEEKSDENESKAEEPKAEVAPVQPKPLPDIAPLHSMVLCRYAGACRNPICHFKHPKECRFGANCRNPSCYFYHKPAGAAPTPVAAPIAAESAGAAKYKWTSATAN” was “not soluble”; that for “MGSSHHHHHHSSGLVPRGSHMASNPNDDMPVDKILEAELISDPKVEQVVPFEQVNENDPVSNICKAADRQLVTLVEWAKRIPHFSSLPLEDQVILLRAGWNELLIASFSHRSIDVKDSILLASGLHVHRHSAHQAGVGPIFDRVLTELVSKMRDMMMDKTELGCLRAVVLFNPDVKNPSDSAHIESLREKVYASLEAYCRSKYPDQPGRFAKLLLRLPALRSIGLKCLEHLFFFKLIGDTPIDKFLMNMLETTSDFPV” was “soluble”. For “IDEKGRVIIAGIGRFGQVVNRLVRMSGIETVVLDHDMAAVQIMRRFGVKGFFGDPTRPELLQAAGLAEATVLVVAVDDRENAIKIVRYARQVRPDLHIVSRARDRVHVYELYQAGADDIVRETFDSSIRAGRYVLENMGF”, the “soluble on expression in E. coli” value is “not soluble”.

Consider “MSLKNNSEVFNVLHFSDIHIQLRYNVGAEANCTNLPCGAPDSYNKQLLPSSYNFSSYYQHFSPNVAKMEFSFYPDAHYDENSQYIKGDYYDFPLYRGWNFKNAPATSFGGYLTDSPAVLMNSSLISMAKMHKEKNFEFAIFTGDVVDHLLLSCTPEYTKEEEVKSFKAMKFFFNNLTVLPALGNHETGEYGQLSPIAYDFNGSYSWNQDEMVDLWINNEWFPAKDRYDLKSHYAGFSYVTNRGLKVIGLNSNAYYQKNLWSYIDLSTNPDLFGQWEFLVNELIESEEKGQRVWIMAHIPTTDYDTLPLQSRIFGKIVERFSPYTIANIFFAHTHMDQTHILYSTNSSKEAEDIINMSWVMQSVTPLANYNPSWRYYEVENESFNIINSFNYMTKLNDTEGHHHHHH”, for which the “soluble on expression in E. coli” value is listed as “soluble”.

Take “MGSDKIHHHHHHMNRLIRTGVLGFLVWLAGCGHAPVQEKPTPEELKQRALQSAKIHTELAGQYYHRGQYRVAIEEAEIALQKKTDYAPAYNMLGLVYMDLQEDDRAEWNFERGLGITPNDPDIRNNFGWFLCQRKPDGIEQAIGHFMAAVRDPLYETPERTYTNAGLCVLKQNDFERAQSYFQEALVIRPGYPLARLGLVELDFSRGEVKKAWAAINRYLQTYPPAPGSLWLAVRIARANGDVNAETNYAFQLQKRFPDSREARESRAGRLNHER”: the “soluble on expression in E. coli” value is reported as “not soluble”.
